Measurements published in patent US20260055148A1 (USTAV ORGANICKE CHEMIE A BIOCHEMIE AV CR V V I, published 2026).
Positions count from the first letter of the chain named. In names and notes the source's numbering stands.

B1: His-ISG65 18-363 (extracellular domain of ISG65 of Trypanosoma brucei gambiense, Tbg.972.2.1600, with N-terminal hexa-histidine tag) (receptor)
chain: MGSSHHHHHHSSGLVPRGSHMLLVIGSEDNRVPGDKKLTKEGAAALCKMKHLADKVAKERSQELKDRTQNFAGYIEFELYRIDYWLEKLNGPKGRKDGYAKLSDSDIEKVKEIFNKAKDGITKQLPEAKKAGEEAGKLHTEVKKAAENARGQDLDDDTAKSTGLYRVLNWYCITKEERHNATPNCDGIQFRKHYLSVNRSAIDCSSTSYEENYDWSANALQVALNSWEDVKPKKLESAGSDKNCNIGQSSESHPCTMTEEWQTPYKETVEKLRELEDAYQRGKKAHDAMLGYANTAYAVNTKVEQEKPLTEVIAAAKEAGKKGAKIIIPAAAPATPTNSTKNDDSAPTEHVDRGIATNETQVEVGID
notes: Expressed in E. coli T7 shuffle cells; also called ISG65 wt
B2: His-ISG65 18-363 Y293A (receptor)
chain: B1 chain with Y297A
notes: also called ISG65 Y293A

Experiments:
[1] = biological target: T1, His-C3d-Avi, biotinylated (human complement C3d with N-terminal His-tag and C-terminal Avi-tag) (human, UniProt P01024 996-1303, site-specific biotinylation of the C-terminal Avi-tag); experiment: SPR BIAcore T200, biotinylated C3d-Avi immobilised, ISG65 as analyte; kon1
T1 construct: domain: C3d; SPR ligand for the ISG65 mutants; not shown: N-terminal His-tag (pET15b); C-terminal Avi-tag

[2] = biological target: T1, His-C3d-Avi, biotinylated (human …); experiment: SPR BIAcore T200, biotinylated C3d-Avi immobilised, ISG65 as analyte; koff1
[3] = biological target: T1, His-C3d-Avi, biotinylated (human …); experiment: SPR BIAcore T200, biotinylated C3d-Avi immobilised, ISG65 as analyte
[4] = biological target: C3b (human complement C3b) (human, UniProt P01024 23-667; P01024 749-1663); experiment: cell-based or functional assay
[5] = biological target: T1, His-C3d-Avi, biotinylated (human …); experiment: SPR, biotinylated C3d-Avi immobilised, ISG65 Y293A as analyte

T1 sequence (P01024 996-1303 limits assumed): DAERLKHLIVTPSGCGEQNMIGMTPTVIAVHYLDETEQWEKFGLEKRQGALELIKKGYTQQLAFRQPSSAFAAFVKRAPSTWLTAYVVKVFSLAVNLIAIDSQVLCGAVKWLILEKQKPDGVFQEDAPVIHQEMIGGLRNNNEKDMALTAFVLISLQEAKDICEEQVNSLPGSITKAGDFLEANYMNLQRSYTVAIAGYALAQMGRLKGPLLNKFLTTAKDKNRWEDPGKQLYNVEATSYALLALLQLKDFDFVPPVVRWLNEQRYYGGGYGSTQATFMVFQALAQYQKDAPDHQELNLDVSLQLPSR
Sequence of C3b (human complement C3b) (P01024 23-667 limits assumed, chain 1 of 2): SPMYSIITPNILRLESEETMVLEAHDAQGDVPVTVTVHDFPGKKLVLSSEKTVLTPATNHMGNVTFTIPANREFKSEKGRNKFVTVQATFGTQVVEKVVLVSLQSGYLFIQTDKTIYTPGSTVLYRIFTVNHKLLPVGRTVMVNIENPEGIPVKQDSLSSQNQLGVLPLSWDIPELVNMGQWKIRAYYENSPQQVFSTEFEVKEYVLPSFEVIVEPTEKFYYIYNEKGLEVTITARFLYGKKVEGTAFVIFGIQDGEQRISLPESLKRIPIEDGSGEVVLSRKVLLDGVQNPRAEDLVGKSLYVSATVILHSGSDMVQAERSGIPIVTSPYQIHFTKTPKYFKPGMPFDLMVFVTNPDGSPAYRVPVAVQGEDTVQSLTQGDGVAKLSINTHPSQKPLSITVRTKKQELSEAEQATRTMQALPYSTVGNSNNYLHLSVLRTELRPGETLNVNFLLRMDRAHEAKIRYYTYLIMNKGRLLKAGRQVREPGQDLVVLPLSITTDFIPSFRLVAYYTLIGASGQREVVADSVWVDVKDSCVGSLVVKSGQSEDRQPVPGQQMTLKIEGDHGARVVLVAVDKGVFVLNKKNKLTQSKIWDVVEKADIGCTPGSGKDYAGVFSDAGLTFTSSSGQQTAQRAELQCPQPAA
Sequence of C3b (human complement C3b) (P01024 749-1663 limits assumed, chain 2 of 2): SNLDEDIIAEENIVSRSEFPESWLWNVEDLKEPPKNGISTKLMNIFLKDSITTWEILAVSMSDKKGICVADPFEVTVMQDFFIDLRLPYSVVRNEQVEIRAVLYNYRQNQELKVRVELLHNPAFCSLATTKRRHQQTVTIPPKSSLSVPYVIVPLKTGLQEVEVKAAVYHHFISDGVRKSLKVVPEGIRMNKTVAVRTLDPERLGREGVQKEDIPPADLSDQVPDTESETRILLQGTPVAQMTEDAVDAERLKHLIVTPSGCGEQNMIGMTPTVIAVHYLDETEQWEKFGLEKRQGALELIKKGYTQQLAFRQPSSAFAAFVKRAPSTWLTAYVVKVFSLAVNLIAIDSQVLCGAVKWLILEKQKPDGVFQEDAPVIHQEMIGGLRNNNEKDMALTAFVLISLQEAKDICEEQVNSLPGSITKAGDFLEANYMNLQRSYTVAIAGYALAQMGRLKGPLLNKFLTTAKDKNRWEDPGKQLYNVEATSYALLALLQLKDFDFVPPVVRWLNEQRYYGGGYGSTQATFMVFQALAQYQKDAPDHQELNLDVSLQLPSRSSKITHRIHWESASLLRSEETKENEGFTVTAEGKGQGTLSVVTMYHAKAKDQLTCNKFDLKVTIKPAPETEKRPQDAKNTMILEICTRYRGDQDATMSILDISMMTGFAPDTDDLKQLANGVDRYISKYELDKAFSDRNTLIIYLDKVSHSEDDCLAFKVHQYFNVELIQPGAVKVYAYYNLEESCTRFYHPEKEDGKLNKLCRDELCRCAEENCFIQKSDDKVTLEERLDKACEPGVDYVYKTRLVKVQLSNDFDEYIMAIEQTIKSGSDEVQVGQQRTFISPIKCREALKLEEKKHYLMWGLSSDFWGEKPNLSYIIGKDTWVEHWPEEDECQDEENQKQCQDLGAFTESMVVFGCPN

Binder | kon [1] [M⁻¹ s⁻¹] | koff [2] [s⁻¹] | Kd [3] [nM] | relative AP50 of human plasma, day 0 [4] [fold] | binding result [5]
B1 | 1e+06 | 0.04 | 27.9 | 6 | 
B2 |  |  |  |  | no binding (tested: ISG65 1.5-100 nM)
